Test results from patent US8501695B2, “Tissue kallikrein for the treatment of diseases associated with amyloid protein” (DiaMedica, Inc., priority 2007, dated 2013).

System: amyloid fibrils (fAβ) from synthetic human amyloid protein Aβ1-42 or Aβ1-40
Assay: In vitro amyloid protein cleavage assay, digestion of fibrils, mass spectroscopy
Assay type: biochemical
Conditions: 37° C., 4 h to 5 days, mass spectra FIG. 1
Procedure: Synthetic human amyloid protein Aβ1-42 or Aβ1-40 was dissolved in dimethyl sulfoxide (DMSO) (Sigma, St. Louis, Mo.) to a concentration of 5 mM, and is then diluted in MilliQ® water to a final concentration of […] immediately prior to use. To prepare amyloid fibrils (fAβ) 5 mM Aβ1-42 or Aβ1-40 in DMSO was diluted in 10 mM HCl to 100 μM (for Aβ1-42) or […] (for Aβ1-40), vortexed for 30 s, and was incubated at 37° C. for 5 days. KLK1 (Sigma) was used for digestion reactions in the following buffers: ECE, 0.1 M MES, 0.1 M NaCl (pH 6.0); IDE, 50 mM Tris, 1 M NaCl (pH 7.5); NEP, 0.1 M MES (pH 6.5); and MMP-9, 50 mM Tris-HCl (pH 7.5), 10 mM CaCl2, 150 mM NaCl, 0.05% Brij 35. It was incubated at 37° C. for 4 h to 5 days. After digestion, the reaction was analyzed by mass spectroscopy. The samples were added to 50 mM glycine (pH 9.2)/2 mM thioflavin T (ThT) (Sigma) at a final volume of up to 2 ml. […] However, in panel C, there is a clear peak at about 2423 M/Z (mass to charge ration), which is an indication of cleavage.

Chain of amyloid fibrils (fAβ) from synthetic human amyloid protein Aβ1-42 or Aβ1-40 (P05067 672-711 limits assumed): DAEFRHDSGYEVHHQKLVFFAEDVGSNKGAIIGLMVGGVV

B1: tissue kallikrein: serine protease that cleaves kininogen into kallidin; polypeptide SEQ ID NO:1 (Sus scrofa kallikrein 1), KLK1 from Sigma (protein, listed as Sus scrofa)
chain: MWSLVMRLALSLAGTGAAPPIQSRIIGGRECEKDSHPWQVAIYHYSSFQCGGVLVDPKWVLTAAHCKNDNYQVWLGRHNLFENEVTAQFFGVTADFPHPGFNLSLLKNHTKADGKDYSHDLMLLRLQSPAKITDAVKVLELPTQEPELGSTCQASGWGSIEPGPDDFEFPDEIQCVELTLLQNTFCADAHPDKVTESMLCAGYLPGGKDTCMGDSGGPLICNGMWQGITSWGHTPCGSANKPSIYTKLIFYLDWINDTITENP
modifications: 125I label in one form
Question: Which “cleavage of amyloid fibrils” value does the source give for B1 here?
Answer: cleaves amyloid fibrils
